Experimental data: PMC9122589
pKd: −log10 of the molar value. Each block holds one substance with its values, some of them ahead of it.

Columns and labels:
[1] = target: BrxR ('BREX Regulator') from Acinetobacter sp. NEB394, untagged (Acinetobacter sp. NEB394); assay: crystal structure; BrxR (125 uM) co-crystallized with 25 bp dsDNA target (150 uM), 2.3 Å, molecular replacement; 0.04 M citric acid, 20% PEG 3350, 60 mM Bis-Tris propane pH 6.4
[2] = target: BrxR ('BREX Regulator') from Acinetobacter sp. NEB394, untagged (Acinetobacter sp. NEB394); assay: SEC; elution profile of purified protein on size exclusion chromatography; conditions of this run not stated
[3] = target: BrxR (R47A) from Acinetobacter sp. NEB394 (Acinetobacter sp. NEB394); assay: as above
[4] = target: BrxR (untagged WT) (Acinetobacter sp. NEB394) (UniProt A0A7H8SL41); assay: EMSA; settings: EMSA: 20 mM Tris pH 7.9, 40 mM NaCl, 2.5% sucrose, 22 C, 30 min; 20 nM DNA (10 nM in Fig S6), 25-800 nM BrxR; 7% native gel in TBE
[5] = target: selenomethionyl (SeMet)-containing BrxR from Acinetobacter sp. NEB394 (Acinetobacter sp. NEB394); assay: crystal structure; apo BrxR, SeMet-derivatized protein, SAD phasing, 2.3 Å; crystals from 10% PEG3000, 0.1 M HEPES pH 7.3, 2% benzamidine-HCl

stoichiometry N [1]: 2
stoichiometry N [2]: 2
Substance: BrxR ('BREX Regulator') from Acinetobacter sp. NEB394, untagged (natural protein)

stoichiometry N [3]: 2
Substance: BrxR (R47A) from Acinetobacter sp. NEB394 (natural protein)

Substance: GCGGAGTCCATCCAAACATCGGGAGATTTTGATCAGATATGTTTAACCTGCCCTCACAATACCGTAAAAATAATTTACTGTATATTCATTGTAGGGTAGTCTTGATCACATTGTTTATTGACCGATTGTTCTATGACAGCAGACAAGCATGAAGTGCTTCTCAGAATGAGGGCGATTGAGTTACTGGCCTACTGGGAAGGGCGTTTG (double strand) [BREX upstream region -109/+98 (~200 bp)]
pKd [4]: 7.00

stoichiometry N [5]: 2
Substance: selenomethionyl (SeMet)-containing BrxR from Acinetobacter sp. NEB394 (natural protein)
